In patent publication US20200109196A1 (MOGAM INSTITUTE FOR BIOMEDICAL RESEARCH, published 2020):

Columns and labels:
[1] = target: T1, mCCM1; assay: ELISA on coated antigen (0.25 µg/ml), HRP anti-human IgG Fab, OD450
T1 construct: also called mouse CCM1; mouse CEACAM1/CD66a protein (Sino Biological); not shown: the vendor's polyhistidine tag
T1 chain: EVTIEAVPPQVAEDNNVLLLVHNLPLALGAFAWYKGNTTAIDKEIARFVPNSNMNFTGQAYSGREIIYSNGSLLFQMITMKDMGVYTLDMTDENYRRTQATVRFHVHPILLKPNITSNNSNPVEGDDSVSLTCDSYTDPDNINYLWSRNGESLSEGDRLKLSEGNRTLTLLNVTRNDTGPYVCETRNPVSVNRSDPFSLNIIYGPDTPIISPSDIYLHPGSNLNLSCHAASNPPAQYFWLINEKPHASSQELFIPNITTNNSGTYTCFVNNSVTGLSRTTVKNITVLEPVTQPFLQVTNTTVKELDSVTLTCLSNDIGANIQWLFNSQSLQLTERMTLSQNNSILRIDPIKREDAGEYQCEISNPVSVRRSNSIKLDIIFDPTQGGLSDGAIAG
Text: (§1) All of the recombinant human CEACAM-1/CD66a protein (R&D systems; Cat. No. 2244-CM, HCCM1), recombinant human CEACAM-5/CD66e protein (R&D systems; Cat. No. 4128-CM, HCCM5), recombinant human CEACAM-6/CD66c protein (R&D systems; Cat. No. 3934-CM, HCCM6), recombinant human CEACAM-3/CD66d protein (Sino Biological; Cat. No. 11933-H08H, HCCM3), recombinant mouse PD-1 Fc chimeric protein (R&D systems; Cat. No. 1021-PD, mPD-1-Fc), recombinant CEACAM1-Fc (IgG4) protein (Mogam, in-house production, HCCM1-Fc), recombinant human CEACAM-1/CD66a protein Bulk (R&D systems; Cat. No. 2244-CM, HCCM1 (bulk)) and mouse CEACAM1/CD66a protein (Sino Biological; Cat. No. 50571-M08H, mouse CCM1) (2.5 μg each) were dissolved in 10 ml of PBS, respectively and dispensed into a 96-well plate (Nunc; Cat. No. 467679) at 100 μl/well, which was incubated overnight at 4° C. Thereafter, each well was treated with 300 μl of 1% (v/v) bovine serum albumin, which was incubated at 37° C. for 1 hour.
(§2) The diluted antibodies were dispensed into each well coated with each protein at 100 μl/well, which was incubated at 37° C. for 1 hour. Then, each well was washed 3 times with a washing buffer prepared by diluting 10 μl of Tween 20 (Sigma-Aldrich; Cat. No. P9146) in 990 μl of PBS. Thereafter, 2 μl of HRP-conjugated human anti-IgG-Fab antibody (anti-human IgG Fab; Sigma; Cat. No. A0293) was diluted in 10 ml of PBS, added to the wells at 100 μl/well, and incubated for 1 hour.
(§3) After completion of the reaction, the wells were washed three times with the washing buffer, and 100 μl of TMB solution was added to each well to induce color development. Then, 100 μl of 2 M H₂SO₄ was added to each well to stop the reaction, and the absorbance was measured at a wavelength of 450 nm.

[2] = target: T2, recombinant human CEACAM-6/CD66c protein (R&D systems; Cat. No. 3934-CM) (human, UniProt P40199 35-320); assay: as above
T2 construct: Bought protein; also called HCCM6
T2 sequence (looked up): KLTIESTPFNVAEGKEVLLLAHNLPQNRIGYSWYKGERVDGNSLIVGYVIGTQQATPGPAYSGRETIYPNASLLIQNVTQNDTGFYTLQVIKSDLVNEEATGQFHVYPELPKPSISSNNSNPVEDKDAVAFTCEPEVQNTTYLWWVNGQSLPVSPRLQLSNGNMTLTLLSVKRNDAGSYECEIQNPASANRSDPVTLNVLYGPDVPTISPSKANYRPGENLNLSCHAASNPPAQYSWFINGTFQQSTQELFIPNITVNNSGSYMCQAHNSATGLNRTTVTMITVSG
Text: as §1, §2, §3

[3] = target: T3, HVISTA; assay: ELISA on coated antigen (0.25 µg/ml), HRP anti-human IgG Fc, OD450
T3 construct: unrelated control antigen; also called human B7-H5/Gi24/VISTA protein (Sino Biological; Cat. No. 13482-H08H); not shown: the vendor's polyhistidine tag
Text: (§4) All of the recombinant human CEACAM-1/CD66a protein (R&D systems; Cat No. 2244-CM, HCCM1), recombinant human CEACAM-5/CD66e protein (R&D systems; Cat. No. 4128-CM, HCCM5), recombinant human CEACAM-6/CD66c protein (R&D systems; Cat. No. 3934-CM, HCCM6), recombinant human CEACAM-3/CD66d protein (Sino Biological; Cat. No. 11933-H08H, HCCM3), human B7-H5/Gi24/VISTA protein (Sino Biological; Cat. No. 13482-H08H, HVISTA), recombinant human CEACAM-1/CD66a protein Bulk (R&D systems; Cat. No. 2244-CM, HCCM1 (bulk)), recombinant human CEACAM1-N domain-Kappa protein (Mogam, in-house production, HCCM1-N domain-kappa), and BSA protein (2.5 μg each) were dissolved in 10 ml of PBS, respectively, and dispensed into a 96-well plate at 100 μl/well, which was incubated at 4° C. overnight. Thereafter, each well was treated with 300 μl of 1% (v/v) bovine serum albumin, and incubated at 37° C. for 1 hour.
as §2, with “and” for “which was”, “anti-IgG-Fc” for “anti-IgG-Fab”, “Fc, Sigma” for “Fab; Sigma;”, “A0170)” for “A0293)”
as §3

[4] = target: T4, BSA (bovine, UniProt P02769); assay: as above
T4 construct: blank antigen; also called BSA protein; bovine serum albumin
Text: as §4
as §2, with “and” for “which was”, “anti-IgG-Fc” for “anti-IgG-Fab”, “Fc, Sigma” for “Fab; Sigma;”, “A0170)” for “A0293)”
as §3

T4 sequence (P02769 25-607 limits assumed): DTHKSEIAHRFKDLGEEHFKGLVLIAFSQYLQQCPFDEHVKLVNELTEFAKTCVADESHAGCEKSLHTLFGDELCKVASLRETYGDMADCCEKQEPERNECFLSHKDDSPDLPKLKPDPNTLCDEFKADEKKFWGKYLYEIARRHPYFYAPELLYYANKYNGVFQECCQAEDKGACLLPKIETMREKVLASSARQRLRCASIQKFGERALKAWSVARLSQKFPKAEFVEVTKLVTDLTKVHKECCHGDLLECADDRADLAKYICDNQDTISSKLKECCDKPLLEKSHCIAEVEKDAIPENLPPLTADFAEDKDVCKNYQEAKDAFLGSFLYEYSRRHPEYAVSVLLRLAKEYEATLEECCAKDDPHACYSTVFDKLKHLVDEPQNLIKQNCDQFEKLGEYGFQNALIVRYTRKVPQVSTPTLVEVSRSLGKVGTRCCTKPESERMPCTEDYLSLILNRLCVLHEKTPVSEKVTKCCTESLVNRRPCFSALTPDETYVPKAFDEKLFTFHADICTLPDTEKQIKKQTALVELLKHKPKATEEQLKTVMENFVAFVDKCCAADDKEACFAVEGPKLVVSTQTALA
T3 sequence (chain, as listed by the source limits assumed): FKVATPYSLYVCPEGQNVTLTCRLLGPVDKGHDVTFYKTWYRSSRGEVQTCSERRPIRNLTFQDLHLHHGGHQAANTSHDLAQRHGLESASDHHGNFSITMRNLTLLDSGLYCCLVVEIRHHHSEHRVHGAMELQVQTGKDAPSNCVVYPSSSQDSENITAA

B1: C18 (antibody, human IgG4 S228P, lambda, V domains shown)
VH: EVQLLESGGGLVQPGGSLRLSCAASGFTFSNYDMSWVRQAPGKGLEWVSGISHSSGSKYYADSVKGRFTISRDNSKNTLYLQMNSLRAEDTAVYYCARDPLPCLIPKCSYYYAMDVWGQGTLVTVSS
VL: QSVLTQPPSAPGTPGQRVTISCSGSSSNIGSNAVTWYQQLPGTAPKLLIYADSHRPSGVPDRFSGSKSGTSASLAISGLRSEDEADYYCGSWDDSLNAYVFGGGTKLTVLG
- binding result [1]: no binding (tested: 3 µg/ml (single concentration))
- binding result [2]: no binding (tested: 3 µg/ml (single concentration))
- binding result [3]: no binding (tested: 3 µg/ml (single concentration))
- binding result [4]: no binding (tested: 3 µg/ml (single concentration))

B2: C19 (antibody, human IgG4 S228P, lambda, V domains shown)
VH: EVQLLESGGGLVQPGGSLRLSCAASGFTFSGYAMSWVRQAPGKGLEWVSGIYHDGGSTYYADSVKGRFTISRDNSKNTLYLQMNSLRAEDTAVYYCARVTVLCTTYGCSSYDGMDVWGQGTLVTVSS
VL: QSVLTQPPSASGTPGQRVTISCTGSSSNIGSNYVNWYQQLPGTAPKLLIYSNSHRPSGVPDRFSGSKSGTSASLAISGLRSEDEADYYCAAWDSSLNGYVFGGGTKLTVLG
- binding result [1]: no binding (tested: 3 µg/ml (single concentration))
- binding result [2]: no binding (tested: 3 µg/ml (single concentration))
- binding result [3]: no binding (tested: 3 µg/ml (single concentration))
- binding result [4]: no binding (tested: 3 µg/ml (single concentration))

B3: C22 (antibody, human IgG4 S228P, lambda, V domains shown)
VH: EVQLLESGGGLVQPGGSLRLSCAASGFTFSDYDMSWVRQAPGKGLEWVSMIYSGSSSKYYADSVKGRFTISRDNSKNTLYLQMNSLRAEDTAVYYCAKAPLPFYFRPKSYYYAMDVWGQGTLVTVSS
VL: QSVLTQPPSASGTPGQRVTISCSGSSSNIGSNNVTWYQQLPGTAPKLLIYANSHRPSGVPDRFSGSKSGTSASLAISGLRSEDEADYYCGSWDSSLNAYVFGGGTKLTVLG
- binding result [1]: no binding (tested: 3 µg/ml (single concentration))
- binding result [2]: no binding (tested: 3 µg/ml (single concentration))
- binding result [3]: no binding (tested: 3 µg/ml (single concentration))
- binding result [4]: no binding (tested: 3 µg/ml (single concentration))

B4: C17 (antibody, human IgG4 S228P, lambda, V domains shown)
VH: EVQLLESGGGLVQPGGSLRLSCAASGFTFSDYSMSWVRQAPGKGLEWVSVIYPDDGNTYYADSVKGRFTISRDNSKNTLYLQMNSLRAEDTAVYYCARGSIWWLSLIPSSYNAMDVWGQGTLVAVSS
VL: QSVLTQPPSASGTPGQRVTISCSGSSSNIGNNAVNWYQQLPGTAPKLLIYANSHRPSGVPDRFSGSKSGTSASLAISGLRSEDEADYYCGAWDASLNGYVFGGGTKLTVLG
- binding result [1]: no binding (tested: 3 µg/ml (single concentration))
- binding result [2]: no binding (tested: 3 µg/ml (single concentration))
- binding result [3]: no binding (tested: 3 µg/ml (single concentration))
- binding result [4]: no binding (tested: 3 µg/ml (single concentration))

B5: C15 (antibody, human IgG4 S228P, lambda, V domains shown)
VH: EVQLLESGGGLVQPGGSLRLSCAASGFTFSSYSMSWVRQAPGKGLEWVSSISPNGGNKYYADSVKGRFTISRDNSKNTLYLQMNSLGAEDTAVYYCAKDPYNIYQPLFDYWGQGTLVTVSS
VL: QSVLTQPLSASGTPGQRVTISCSGSSSNIGNNYVNWYQQLPGTAPKLLIYANSNRPSGVPDRFSGSKSGTSASLAISGLRSEEEADYYCGTWDASLSAYVFGGGTKLTVLG
- binding result [1]: no binding (tested: 3 µg/ml (single concentration))
- binding result [2]: no binding (tested: 3 µg/ml (single concentration))
- binding result [3]: no binding (tested: 3 µg/ml (single concentration))
- binding result [4]: no binding (tested: 3 µg/ml (single concentration))

B6: C25 (antibody, human IgG4 S228P, lambda, V domains shown)
VH: EVQLLESGGGLVQPGGSLRLSCAASGFTFSNYAMSWVRQAPGKGLEWVSVISHGGGSIYYADSVKGRLTISRDNSKNTLYLQMNSLRAEDTAVYYCARDPTKGYAPTFDYWGQGTLVTVSS
VL: QSVLTQPPSASGTPGQRVTISCSGSSSNIGNNYVSWYQQLPGTAPKLLIYADSKRPSGVPDRFSGSKSGTSASLAISGLRSEDEADYYCGAWDASLNGYVFGGGTKLTVLG
notes: Made in ExpiHEK293F cells, protein A purified. huIgG4 is the isotype control and anti-huIgG4 the detection reagent; the isotype is not otherwise stated; also called anti-CEACAM1 antibody C25
- binding result [1]: no binding (tested: 3 µg/ml (single concentration))
- binding result [2]: no binding (tested: 3 µg/ml (single concentration))
- binding result [3]: no binding (tested: 3 µg/ml (single concentration))
- binding result [4]: no binding (tested: 3 µg/ml (single concentration))

B7: C26 (antibody, human IgG4 S228P, lambda, V domains shown)
VH: EVQLLESGGGLVQPGGSLRLSCAASGFTFSGYDMSWVRQAPGKGLEWVSWISYGGGSIYYADSVKGRFTISRDNSKNTLYLQMNSLRAEDTAVYYCAKDRLPQKAVRHSYANGMDVWGQGTLVTVSS
VL: QSVLTQPPSASGTPGQRVTISCSGSSSNIGNNYVTWYQQLPGTAPKLLIYADSHRPSGVPDRFSGSKSGTSASLAISGLRSEDEADYYCGAWDYSLSGYVFGGGTKLTVLG
- binding result [1]: no binding (tested: 3 µg/ml (single concentration))
- binding result [2]: no binding (tested: 3 µg/ml (single concentration))
- binding result [3]: no binding (tested: 3 µg/ml (single concentration))
- binding result [4]: no binding (tested: 3 µg/ml (single concentration))
